Values belong to the binder of their own block, whether it stands above or below them.
Tests used:
[1] = molecular target: T1, human CD47 on the cell surface (human, UniProt Q08722 19-323); experiment: flow cytometry, HT-29 cells (CD47+, no PD-L1)
T1 construct: whole, on cells; also called plasma membranous CD47; CHO CD47 cells

[2] = molecular target: T1, human CD47 on the cell surface; experiment: flow cytometry, CHO CD47 cells; competitor biotinylated SIRPα; by the text maximum inhibition normalised to PRO2777
[3] = molecular target: T1, human CD47 on the cell surface; experiment: flow cytometry, NCI-H292 cells (CD47+ PD-L1+); competitor biotinylated SIRPα; column head prints EC50
[4] = molecular target: T1, human CD47 on the cell surface; experiment: flow cytometry, CHO CD47 cells; competitor biotinylated SIRPα; column head prints EC50
recombinant human CD47 = recombinant human CD47 (human, UniProt Q08722 19-139, limits assumed); experiment: SPR, antigen immobilised, antibody as analyte
recombinant human PDL1 = molecular target: T2, recombinant human PDL1 (human, UniProt Q9NZQ7 19-238, limits assumed); experiment: SPR, antigen immobilised, antibody as analyte
T2 construct: SPR antigen; also called CD274; B7-H1

[5] = molecular target: T1, human CD47 on the cell surface; experiment: flow cytometry, NCI-H292 cells; competitor biotinylated SIRPα; by the text maximum inhibition normalised to PRO2777
[6] = molecular target: T3, human PD-L1 on the cell surface (human, UniProt Q9NZQ7 19-290); experiment: cell-based or functional assay
[7] = molecular target: T3, human PD-L1 on the cell surface; experiment: cell-based or functional assay; remark: listed apart in the source
[8] = molecular target: T1, human CD47 on the cell surface; experiment: cell-based or functional assay
[9] = molecular target: T1, human CD47 on the cell surface; experiment: flow cytometry, human erythrocytes
[10] = molecular target: T4, human LILRB2 on the cell surface (human, UniProt Q8N423 22-597); experiment: positive control of the LILRB2 ligand-blocking flow cytometry assay
T4 construct: whole, on cells; also called CHO K1 cells expressing human LILRB2; LILRB2 on HMDMs

[11] = molecular target: T5, LILRB4 on transiently transfected CHO cells (UniProt Q8NHJ6 22-448); experiment: CELISA, transiently transfected CHO cells
T5 construct: whole, on cells; V5 tag at the N-terminus

[12] = molecular target: T6, LILRB1 on transiently transfected CHO cells (UniProt Q8NHL6 24-650); experiment: CELISA, transiently transfected CHO cells
T6 construct: whole, on cells; V5 tag at the N-terminus

[13] = molecular target: T7, LILRB5 on transiently transfected CHO cells (UniProt O75023 24-590, limits assumed); experiment: CELISA, transiently transfected CHO cells
T7 construct: whole, on cells; V5 tag at the N-terminus

[14] = molecular target: T8, LILRB2 (Q8N423-2) on transiently transfected CHO cells (UniProt Q8N423-2 22-597); experiment: CELISA, transiently transfected CHO cells
T8 construct: whole, on cells

[15] = molecular target: T9, LILRB3 on transiently transfected CHO cells (UniProt O75022 24-631, limits assumed); experiment: CELISA, transiently transfected CHO cells
T9 construct: whole, on cells; V5 tag at the N-terminus

[16] = molecular target: T10, LILRA2 on transiently transfected CHO cells (UniProt Q8N149 24-483); experiment: CELISA, transiently transfected CHO cells
T10 construct: whole, on cells; V5 tag at the N-terminus

[17] = molecular target: T11, LILRA4 on transiently transfected CHO cells (UniProt P59901 24-499); experiment: CELISA, transiently transfected CHO cells
T11 construct: whole, on cells; V5 tag at the N-terminus

[18] = molecular target: T12, LILRA6 on transiently transfected CHO cells (UniProt Q6PI73 24-481); experiment: CELISA, transiently transfected CHO cells
T12 construct: whole, on cells; V5 tag at the N-terminus

[19] = molecular target: T13, LILRA3 on transiently transfected CHO cells (UniProt Q8N6C8 24-439); experiment: CELISA, transiently transfected CHO cells
T13 construct: whole, on cells; V5 tag at the N-terminus

[20] = molecular target: T14, LILRA5 on transiently transfected CHO cells (UniProt A6NI73 42-299); experiment: CELISA, transiently transfected CHO cells
T14 construct: whole, on cells; V5 tag at the N-terminus

[21] = molecular target: T15, LILRA1 on transiently transfected CHO cells (UniProt O75019 17-489, limits assumed); experiment: CELISA, transiently transfected CHO cells
T15 construct: whole, on cells; V5 tag at the N-terminus

[22] = molecular target: T4, human LILRB2 on the cell surface; experiment: flow cytometry, CHO cells expressing LILRB2; competitor HLA-G tetramer
[23] = molecular target: T5, LILRB4 on transiently transfected CHO …; experiment: CELISA, transiently transfected CHO cells; scFv cross-linked with an anti-framework antibody
[24] = molecular target: T7, LILRB5 on transiently transfected CHO …; experiment: as above
[25] = molecular target: T9, LILRB3 on transiently transfected CHO …; experiment: as above
[26] = molecular target: T10, LILRA2 on transiently transfected CHO …; experiment: as above
[27] = molecular target: T11, LILRA4 on transiently transfected CHO …; experiment: as above
[28] = molecular target: T12, LILRA6 on transiently transfected CHO …; experiment: as above
[29] = molecular target: T13, LILRA3 on transiently transfected CHO …; experiment: as above
[30] = molecular target: T14, LILRA5 on transiently transfected CHO …; experiment: as above
[31] = molecular target: T15, LILRA1 on transiently transfected CHO …; experiment: as above
recombinant human LILRB2 = molecular target: T16, recombinant human LILRB2 (human, UniProt Q8N423 22-460, limits assumed); experiment: SPR, LILRB2 immobilised, scFv as analyte
T16 construct: also called ILT4

[32] = molecular target: T4, human LILRB2 on the cell surface; experiment: flow cytometry, CHO cells expressing LILRB2; competitor HLA-G tetramer; reference PRO2518

T4 sequence (Q8N423 22-597): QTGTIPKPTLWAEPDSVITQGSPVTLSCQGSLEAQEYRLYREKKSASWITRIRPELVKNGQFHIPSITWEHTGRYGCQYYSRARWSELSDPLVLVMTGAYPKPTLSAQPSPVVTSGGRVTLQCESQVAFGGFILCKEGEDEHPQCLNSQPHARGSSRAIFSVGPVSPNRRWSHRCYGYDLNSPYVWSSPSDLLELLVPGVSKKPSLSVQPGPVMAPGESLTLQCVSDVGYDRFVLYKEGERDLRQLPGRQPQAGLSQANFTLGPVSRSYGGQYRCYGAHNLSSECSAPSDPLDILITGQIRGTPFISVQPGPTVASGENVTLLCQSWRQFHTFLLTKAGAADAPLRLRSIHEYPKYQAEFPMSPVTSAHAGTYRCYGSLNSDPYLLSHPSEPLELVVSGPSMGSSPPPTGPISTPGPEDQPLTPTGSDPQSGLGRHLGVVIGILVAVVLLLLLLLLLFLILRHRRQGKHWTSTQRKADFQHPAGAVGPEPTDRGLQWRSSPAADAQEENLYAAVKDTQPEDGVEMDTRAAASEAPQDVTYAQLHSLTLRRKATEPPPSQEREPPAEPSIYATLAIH
T16 sequence (Q8N423 22-460 limits assumed): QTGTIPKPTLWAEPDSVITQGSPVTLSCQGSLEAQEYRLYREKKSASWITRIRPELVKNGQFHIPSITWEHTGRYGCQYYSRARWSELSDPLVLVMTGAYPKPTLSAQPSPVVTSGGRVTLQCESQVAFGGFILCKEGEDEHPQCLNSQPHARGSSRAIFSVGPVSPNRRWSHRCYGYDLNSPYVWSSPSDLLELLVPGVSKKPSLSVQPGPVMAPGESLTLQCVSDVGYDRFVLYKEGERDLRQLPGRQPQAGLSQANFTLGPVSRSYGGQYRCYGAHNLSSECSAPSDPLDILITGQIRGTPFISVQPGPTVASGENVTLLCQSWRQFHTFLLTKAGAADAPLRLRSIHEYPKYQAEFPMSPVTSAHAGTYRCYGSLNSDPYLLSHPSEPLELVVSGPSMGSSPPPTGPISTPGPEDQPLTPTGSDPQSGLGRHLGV
T10 sequence (Q8N149 24-483): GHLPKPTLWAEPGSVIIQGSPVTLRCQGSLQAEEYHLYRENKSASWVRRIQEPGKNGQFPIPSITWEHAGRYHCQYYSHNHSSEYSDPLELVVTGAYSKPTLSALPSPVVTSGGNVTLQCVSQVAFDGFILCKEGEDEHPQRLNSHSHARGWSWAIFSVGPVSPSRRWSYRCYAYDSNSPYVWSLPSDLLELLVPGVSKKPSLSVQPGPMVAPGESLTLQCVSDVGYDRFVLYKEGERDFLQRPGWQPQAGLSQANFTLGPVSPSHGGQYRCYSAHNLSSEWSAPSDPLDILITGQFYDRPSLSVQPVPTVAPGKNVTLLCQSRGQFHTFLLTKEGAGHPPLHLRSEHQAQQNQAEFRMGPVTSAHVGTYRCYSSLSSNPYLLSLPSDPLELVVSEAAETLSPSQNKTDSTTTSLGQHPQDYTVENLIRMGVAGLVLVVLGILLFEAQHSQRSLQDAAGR
T7 sequence (O75023 24-590 limits assumed): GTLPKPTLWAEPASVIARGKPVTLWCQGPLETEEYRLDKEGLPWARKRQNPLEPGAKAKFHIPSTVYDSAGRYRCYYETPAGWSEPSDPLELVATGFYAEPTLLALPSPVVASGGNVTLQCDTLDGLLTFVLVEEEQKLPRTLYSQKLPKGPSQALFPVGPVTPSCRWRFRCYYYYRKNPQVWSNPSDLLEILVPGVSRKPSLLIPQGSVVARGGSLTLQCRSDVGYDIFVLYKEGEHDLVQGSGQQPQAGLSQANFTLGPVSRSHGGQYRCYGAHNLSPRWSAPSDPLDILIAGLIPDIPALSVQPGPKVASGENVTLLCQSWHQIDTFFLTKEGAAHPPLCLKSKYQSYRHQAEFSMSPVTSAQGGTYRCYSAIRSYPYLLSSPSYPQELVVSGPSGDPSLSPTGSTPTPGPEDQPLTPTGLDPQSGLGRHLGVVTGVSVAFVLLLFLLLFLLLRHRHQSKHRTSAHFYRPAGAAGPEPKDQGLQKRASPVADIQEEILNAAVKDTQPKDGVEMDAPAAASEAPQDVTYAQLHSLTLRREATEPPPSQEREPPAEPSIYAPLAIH
T12 sequence (Q6PI73 24-481): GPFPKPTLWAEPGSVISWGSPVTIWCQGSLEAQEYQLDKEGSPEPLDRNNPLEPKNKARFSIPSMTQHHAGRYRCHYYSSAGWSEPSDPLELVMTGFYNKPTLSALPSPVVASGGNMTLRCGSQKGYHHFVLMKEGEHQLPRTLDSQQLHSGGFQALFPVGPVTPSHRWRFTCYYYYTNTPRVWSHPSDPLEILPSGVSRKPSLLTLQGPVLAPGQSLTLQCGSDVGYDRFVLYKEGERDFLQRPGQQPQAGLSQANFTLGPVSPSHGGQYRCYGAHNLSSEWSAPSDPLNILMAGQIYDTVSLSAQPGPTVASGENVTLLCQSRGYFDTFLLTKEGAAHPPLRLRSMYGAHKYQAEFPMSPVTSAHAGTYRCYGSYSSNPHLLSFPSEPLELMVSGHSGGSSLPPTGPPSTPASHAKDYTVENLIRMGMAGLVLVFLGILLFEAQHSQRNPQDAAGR
T14 sequence (A6NI73 42-299): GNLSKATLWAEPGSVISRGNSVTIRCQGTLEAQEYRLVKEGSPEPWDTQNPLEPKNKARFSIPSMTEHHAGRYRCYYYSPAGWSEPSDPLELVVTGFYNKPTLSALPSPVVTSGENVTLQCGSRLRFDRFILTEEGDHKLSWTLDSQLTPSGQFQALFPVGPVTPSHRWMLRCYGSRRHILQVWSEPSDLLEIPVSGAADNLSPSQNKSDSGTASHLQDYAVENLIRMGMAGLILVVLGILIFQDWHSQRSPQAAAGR
T11 sequence (P59901 24-499): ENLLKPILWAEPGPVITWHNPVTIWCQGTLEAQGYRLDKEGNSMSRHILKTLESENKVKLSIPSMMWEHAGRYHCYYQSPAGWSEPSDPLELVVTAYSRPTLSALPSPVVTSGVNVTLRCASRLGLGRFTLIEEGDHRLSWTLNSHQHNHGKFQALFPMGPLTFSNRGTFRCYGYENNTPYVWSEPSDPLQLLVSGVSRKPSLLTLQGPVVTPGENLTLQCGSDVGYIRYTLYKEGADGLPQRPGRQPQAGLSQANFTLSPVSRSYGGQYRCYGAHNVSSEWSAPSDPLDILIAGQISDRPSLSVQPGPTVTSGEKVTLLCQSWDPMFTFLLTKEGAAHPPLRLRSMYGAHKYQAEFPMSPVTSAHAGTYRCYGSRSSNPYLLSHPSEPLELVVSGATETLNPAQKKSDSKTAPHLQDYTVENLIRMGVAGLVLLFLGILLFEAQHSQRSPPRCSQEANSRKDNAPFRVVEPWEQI
T13 sequence (Q8N6C8 24-439): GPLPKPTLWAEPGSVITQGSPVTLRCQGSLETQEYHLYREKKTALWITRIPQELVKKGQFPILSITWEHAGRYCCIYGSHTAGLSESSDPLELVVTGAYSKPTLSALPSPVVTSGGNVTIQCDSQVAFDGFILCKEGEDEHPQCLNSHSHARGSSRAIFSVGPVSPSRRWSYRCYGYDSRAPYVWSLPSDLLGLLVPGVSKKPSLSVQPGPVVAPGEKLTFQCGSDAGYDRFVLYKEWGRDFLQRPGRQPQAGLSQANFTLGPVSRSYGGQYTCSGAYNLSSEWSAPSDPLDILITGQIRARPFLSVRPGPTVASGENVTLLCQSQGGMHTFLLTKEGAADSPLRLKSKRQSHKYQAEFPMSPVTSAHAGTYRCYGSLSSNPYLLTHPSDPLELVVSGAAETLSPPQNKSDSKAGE
T15 sequence (O75019 17-489 limits assumed): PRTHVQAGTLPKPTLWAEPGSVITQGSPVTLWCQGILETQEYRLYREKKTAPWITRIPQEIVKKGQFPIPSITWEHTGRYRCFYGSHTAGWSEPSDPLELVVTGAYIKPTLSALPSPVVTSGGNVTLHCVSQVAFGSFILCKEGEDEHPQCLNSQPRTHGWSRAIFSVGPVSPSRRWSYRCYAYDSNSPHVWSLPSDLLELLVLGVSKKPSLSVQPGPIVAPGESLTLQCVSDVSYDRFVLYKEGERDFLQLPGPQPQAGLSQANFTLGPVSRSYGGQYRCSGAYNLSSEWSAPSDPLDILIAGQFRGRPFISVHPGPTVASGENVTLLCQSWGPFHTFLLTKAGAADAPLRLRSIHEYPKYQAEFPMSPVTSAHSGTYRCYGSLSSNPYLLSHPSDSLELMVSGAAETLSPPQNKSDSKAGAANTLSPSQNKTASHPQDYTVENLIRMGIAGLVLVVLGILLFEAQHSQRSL
T8 sequence (Q8N423 22-597, one chain of several): as the sequence (Q8N423 22-597) above

B1: PRO3790 (bispecific antibody, human IgG1, kappa)
chain: DVQMTQSPSSLSASVGDRVTITCQASQSISSWVSWYQQKPGKPPKLLIYRGGYLESGVPSRFSASGSGTDFTLTISSLQPEDFATYYCQSTDSSTYGGAFGCGTKVTVLGGGGGSGGGGSGGGGSGGGGSQQVVESGGGLVQPGGSLRLSCAVSGIDLNSYAMTWVRQAPGKCLEWIGYIGSASSTYYASWASGRFTISKDNSKNTVYLQMNSLRAEDSAVYFCARGSTYINIWGQGTLVKVSSEPKSSDKTHTCPPCPAPELLGGPSVFLFPPKPKDTLMISRTPEVTCVVVDVSHEDPEVKFNWYVDGVEVHNAKTKPREEQYNSTYRVVSVLTVLHQDWLNGKEYKCKVSNKALPAPIEKTISKAKGQPREPQVYTLPPCREEMTKNQVSLSCAVKGFYPSDIAVEWESNGQPENNYKTTPPVLDSDGSFFLVSKLTVDKSRWQQGNVFSCSVMHEALHNHYTQKSLSLSPGK
heavy: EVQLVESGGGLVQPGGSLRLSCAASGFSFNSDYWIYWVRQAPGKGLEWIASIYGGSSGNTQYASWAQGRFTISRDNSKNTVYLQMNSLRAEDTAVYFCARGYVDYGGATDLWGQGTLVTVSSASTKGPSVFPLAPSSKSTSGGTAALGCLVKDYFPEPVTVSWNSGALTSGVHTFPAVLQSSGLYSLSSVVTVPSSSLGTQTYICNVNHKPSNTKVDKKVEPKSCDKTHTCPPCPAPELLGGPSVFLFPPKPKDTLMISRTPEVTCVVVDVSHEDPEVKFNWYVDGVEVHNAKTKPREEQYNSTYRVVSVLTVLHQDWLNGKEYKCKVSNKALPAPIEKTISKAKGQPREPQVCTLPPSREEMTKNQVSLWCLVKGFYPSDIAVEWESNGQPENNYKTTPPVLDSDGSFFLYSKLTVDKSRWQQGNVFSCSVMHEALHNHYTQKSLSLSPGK
light: DIQMTQSPASLSASVGDRVTITCQASQSIGTYLAWYQQKPGKPPKLLIYRAFILASGVPSRFSGSGSGTDFTLTISSLQPEDFATYYCQSNFYSDSTTIGPNAFGQGTKVEIKRTVAAPSVFIFPPSDEQLKSGTASVVCLLNNFYPREAKVQWKVDNALQSGNSQESVTEQDSKDSTYSLSSTLTLSKADYEKHKVYACEVTHQGLSSPVTKSFNRGEC
notes: anti-CD47 x PDL1: 70-26-B04-sc03 scFv on hole-Fc, 37-20-B03-sc09.1 Fab on knob-Fc
EC50 [1]: > 100 nM
Rel. maximum binding (max. MFI sample / max. MFI magrolimab) [2]: 87
IC50 [3]: 0.068 nM
IC50 [4]: 110 nM
Kd (recombinant human CD47): 35 nM
koff (recombinant human CD47): 0.0235 s⁻¹
kon (recombinant human CD47): 672000 M⁻¹ s⁻¹
Kd (recombinant human PDL1): 0.0759 nM
koff (recombinant human PDL1): 4.19e-05 s⁻¹
kon (recombinant human PDL1): 552000 M⁻¹ s⁻¹
Rel. maximum binding (max. MFI sample / max. MFI magrolimab) [5]: 92.5
EC50 [nM], PD-L1 / PD-1 transgenic NFAT reporter gene assay [6]: 0.272 nM
PD-L1 driven EC50 [nM], phagocytosis of H292 cells [7]: 0.04 nM
CD47 driven EC50 [nM], phagocytosis of H292 cells [8]: 31.2 nM
EC50 [9]: 98.8 nM

B2: PRO2518 (antibody, human IgG4 S228P, kappa, V domains shown)
VH: QITLKESGPTLVKPTQTLTLTCTFSGFSLNTYAMGVSWIRQPPGKALEWLASIWWNGNKYNNPSLKSRLTVTKDTSKNQVVLTMTNMDPVDTATYYCAHSRIIRFTDYVMDAWGQGTLVTVSS
VL: DIQMTQSPSSLSTSVGDRVTITCRASEDIYNDLAWYQQKPGKAPKLLIYNANSLHTGVASRFSGSGSGTDFTFTISSLQPEDVATYFCQQYYDYPLTFGQGTKLEIKR
notes: also called J19.H1; J-19
binding result [10]: binds

The remaining lines, values ahead:

binding result [11]: no binding (tested: up to 100 nM)
binding result [12]: no binding (tested: up to 100 nM)
binding result [13]: no binding (tested: up to 100 nM)
binding result [14]: binds
binding result [15]: no binding (tested: up to 100 nM)
binding result [16]: no binding (tested: up to 100 nM)
binding result [17]: no binding (tested: up to 100 nM)
binding result [18]: no binding (tested: up to 100 nM)
binding result [19]: no binding (tested: up to 100 nM)
binding result [20]: no binding (tested: up to 100 nM)
binding result [21]: no binding (tested: up to 100 nM)
B3: PRO3635 (antibody, human IgG4 S228P, kappa, V domains shown)
VH: QQLVESGGGRVQPGGSLRLSCAASGFSFTNNYYMCWVRQAPGKGLEWIACMLVGAWGNTYYASWANGRFTISKDNSKNTVYLQMNSLRAEDTATYFCARARDYTWTLGGDPETSGFNLWGQGTQVTVSS
VL: DVQMTQSPSSLSASVGDRVTITCQASQSIGSNLAWYQQKPGKPPKLLIYKASTLESGVPSRFSGSGSGTDFTLTISSLQPEDFATYYCQSTAGSSRSGNYGYVFGQGTKVEIKR
notes: anti-LILRB2 IgG4; also called 68-18-E11-sc02 IgG4; IgG variant of scFv PRO3064

IC50 [22]: 0.593 nM
binding result [23]: no binding
binding result [24]: no binding
binding result [25]: no binding
binding result [26]: no binding
binding result [27]: no binding
binding result [28]: no binding
binding result [29]: no binding
binding result [30]: no binding
binding result [31]: no binding
Kd (recombinant human LILRB2): 0.131 nM
koff (recombinant human LILRB2): 0.000128 s⁻¹
kon (recombinant human LILRB2): 974000 M⁻¹ s⁻¹
Rel. max. inhibition % (rel. to J-19) [32]: 99.5%
B4: PRO3697 (scFv)
scFv: AFQLTQSPSSLSASVGDRVTITCQASQSIGTYLAWYQQKPGKPPKLLIYRGGTLASGVPSRFSGSGSGTDFTLTISSLQPEDFATYYCQSYDSSNTFGTGTKVTVLGGGGGSGGGGSGGGGSGGGGSQEQLVESGGGLVQPGRSLRLSCAASGFDLSADYMCWVRQAPGKGLEWIACIYIDDDNTYYATWAKGRFTISKDNSKNTVYLQMNSLRAEDSAVYFCARGYGVYTGAITYFTLWGQGTLVKVSS
notes: anti-LILRB2 scFv; in the CELISA selectivity test it was cross-linked with an anti-framework antibody; also called 69-06-G04-sc05

— EP4574844A1 (Numab Therapeutics AG, dated 2025)
